Measurements as given in patent publication US7572444B2, “Binding proteins specific for human matriptase” (Amgen Fremont Inc., priority 2004, dated 2009).

Target: T1, Biotinylated-MTSP1 (Homo sapiens, UniProt Q9Y5Y6)
T1 sequence (Q9Y5Y6 615-855 limits assumed): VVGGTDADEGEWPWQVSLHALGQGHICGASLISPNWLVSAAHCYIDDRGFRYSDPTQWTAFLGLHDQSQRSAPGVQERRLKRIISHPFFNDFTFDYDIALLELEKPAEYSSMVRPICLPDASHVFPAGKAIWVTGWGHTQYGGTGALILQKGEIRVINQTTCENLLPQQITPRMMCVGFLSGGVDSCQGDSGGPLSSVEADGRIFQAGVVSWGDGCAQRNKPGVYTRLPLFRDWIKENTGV
Test: Competition binding assay on sc95/96 coated plate
Details: 125 ng/ml Biotinylated-MTSP1; HAI-1 titrated from 2 μg/ml, sc95/96 from 10 μg/ml
Excerpt: This experiment was set-up to determine whether or not HAI-1 (the natural inhibitor of MT-SP1) would compete for binding to MT-SP1 with 95/96.
Bound MTSP was then detected with SA-pod.

B1: HAI-1: the natural inhibitor of MT-SP1 (protein, UniProt O43278 36-529, looked up)
Kunitz-type protease …: GPPPAPPGLPAGADCLNSFTAGVPGFVLDTNASVSNGATFLESPTVRRGWDCVRACCTTQNCNLALVELQPDRGEDAIAACFLINCLYEQNFVCKFAPREGFINYLTREVYRSYRQLRTQGFGGSGIPKAWAGIDLKVQPQEPLVLKDVENTDWRLLRGDTDVRVERKDPNQVELWGLKEGTYLFQLTVTSSDHPEDTANVTVTVLSTKQTEDYCLASNKVGRCRGSFPRWYYDPTEQICKSFVYGGCLGNKNNYLREEECILACRGVQGGPLRGSSGAQATFPQGPSMERRHPVCSGTCQPTQFRCSNGCCIDSFLECDDTPNCPDASDEAACEKYTSGFDELQRIHFPSDKGHCVDLPDTGLCKESIPRWYYNPFSEHCARFTYGGCYGNKNNFEEEQQCLESCRGISKKDVFGLRREIPIPSTGSVEMAVAVFLVICIVVVVAILGYCFFKNQRKDFHGHHHHPPPTPASSTVSTTEDTEHLVYNHTTRPL
Q: With B1 as the molecule, how does the “competition for binding of MT-SP1 to sc95/96 coated plate” value read?
A: The value was “prevented the binding of MT-SP1 to the plate”.
